{"source": "patent US20200383981", "test_system": "wild-type human IDO1", "data": [{"substance": "human Src Y530F", "values": [{"measurement": "tyrosine phosphorylation of human IDO1 Tyr249 (ITIM2), western blot of SW837 IDO1WT lysate", "value": "Expression of human Src Y530F in SW837 IDO1WT cells was shown to enhance tyrosine phosphorylation of human IDO1 Tyr249 (ITIM2)"}]}]}
